Consider one substance from US20240165282A1, “CONFORMATIONAL CONSTRAINED SOMATOSTATIN RECEPTOR 3 PEPTIDE LIGANDS AND THEIR CONJUGATES AND USES THEREOF” (STARGET PHARMA LTD., priority 2021, published 2024).

This test has as its target human cloned somatostatin receptor 2 (human) (UniProt P30874). As to the kind of experiment: cell-based or functional assay.

Sequence of human cloned somatostatin receptor 2 (human) (P30874 whole entry): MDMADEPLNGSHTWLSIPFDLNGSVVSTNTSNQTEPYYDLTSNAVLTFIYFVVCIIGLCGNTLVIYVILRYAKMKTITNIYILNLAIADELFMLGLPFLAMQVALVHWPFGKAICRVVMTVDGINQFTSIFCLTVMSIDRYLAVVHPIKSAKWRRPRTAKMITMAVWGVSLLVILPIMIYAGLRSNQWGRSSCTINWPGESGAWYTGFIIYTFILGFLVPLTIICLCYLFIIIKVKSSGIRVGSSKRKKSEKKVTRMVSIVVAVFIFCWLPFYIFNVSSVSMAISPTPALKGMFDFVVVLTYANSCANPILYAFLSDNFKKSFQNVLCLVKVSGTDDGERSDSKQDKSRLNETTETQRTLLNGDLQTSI

Consider “SRIF-28 (from UniProt P61278 89-116) (ligand)”, for which the Cellular Internalization EC50 (β-Arrestin Luminescence Assay) came to 3 nM and the Efficacy - maximal response was 47500 RLU.
